Values belong to the molecule of their own block, whether it stands above or below them.
Legend:
RsLOV = RsLOV (Cereibacter sphaeroides, UniProt M1E1F8); experiment: X-ray crystallography; format: binding; conditions: dark state, noncovalent; 1.9 Å
[1] = biological target: A138Y RsLOV variant (Rhodobacter sphaeroides ATCC 17025); experiment: SEC
[2] = biological target: LOV domain protein of Rhodobacter sphaeroides (RsLOV), wild type (Rhodobacter sphaeroides ATCC 17025); experiment: SEC

Molecule: Cc1cc2nc3c(=O)[nH]c(=O)nc-3n(C[C@H](O)[C@H](O)[C@H](O)COP(=O)(O)O)c2cc1C [FMN]
- X-ray crystallography (RsLOV): The Val32 side chain does not extend as far into the FMN pocket as Leu

- stoichiometry N [1]: 2
Molecule: A138Y RsLOV variant (natural protein)

- stoichiometry N [2]: 2
Molecule: LOV domain protein of Rhodobacter sphaeroides (RsLOV), wild type (natural protein)
